What was measured:
[1] = molecular target: NHERF3 (endogenous, Caco-2/bbe) (UniProt Q5T2W1); assay: HA-NHE3 IP, LC-MS/MS spectral counts; settings: reference: NHE3 wild type; sites S719
ezrin = ezrin (UniProt P15311); assay: HA-NHE3 IP, LC-MS/MS spectral counts; settings: reference: NHE3 wild type; sites S719

other: normalized exclusive spectrum count [1]: weaker; reference 4
other: normalized exclusive spectrum count (ezrin): weaker; reference 8
Substance: NHE3 (from UniProt P26432) NHE3-S719A

From PMC5491184
